{"source": "paper PMC6755086", "target": "Xanthamonas campestris p.v. campestris Class 2 OLD protein, full-length (Xcc^FL, residues 1-595) (Xanthamonas campestris p.v. campestris)", "assay": "SEC-MALS", "data": [{"substance": "Xanthamonas campestris p.v. campestris Class 2 OLD protein, full-length (Xcc^FL, residues 1-595) (enzyme)", "values": [{"measurement": "stoichiometry N", "result": 4}]}]}
